The results in this text go back to US20230151104A1 (REMD BIOTHERAPEUTICS, published 2023).

In general, EC50 refers to the midpoint of the concentration-response curve. The low end stands for greater potency, the high end for weaker potency.

“And” between values parts separate entries of the source, which are not always exact repeats. Identical values can stand only once.

The labels stand for the following.
B1: murine-human chimeric IgG1 derived from mAb 201D10A12C1 (A15) (antibody, V domains shown)
VH: EVQLQQSGPVLVRPGASVKMSCKASGYAFTDFHLNWVKQSHGKSLEWIGVINPYNGGTNYNQKFKDKATLTVDKSSSTAYMELNRLTSEDSAVYYCARYYASRYGYAMDYWGQGTSVTVSS
VL: DIVMTQAAPSVPVTPGESVSISCRSSKSLLHSNGNTYLYWFLQRPGQSPQLLIYRMSNLASGVPDRFSGSGSGTAFTLRISRVEAEDVGIYYCMQHVEYPLTFGAGTKLELKR
notes: also called Chimeric (VH/VL); 4 Chimeric (VH/VL)
B2: humanized IgG 2 (VH1/VL2) (antibody)
heavy: not shown
light: DIVMTQSPLSLPVTPGEPVSISCRSSKSLLHSNGNTYLYWFLQKPGQSPQLLIYRMSNLASGVPDRFSGSGSGTDFTLKISRVEAEDVGVYYCMQHVEYPLTFGGGTKLEIKRTVAAPSVFIFPPSDEQLKSGTASVVCLLNNFYPREAKVQWKVDNALQSGNSQESVTEQDSKDSTYSLSSTLTLSKADYEKHKVYACEVTHQGLSSPVTKSFNRGEC
notes: Full-length humanized IgG; also called H1/L2
B3: humanized IgG 1 (VH1/VL1) (antibody, V domains shown)
VH: QVQLVQSGAEVKKPGASVKVSCKASGYAFTDFHLNWVRQAPGQGLEWMGVINPYNGGTNYNQKFKDRVTMTRDTSISTAYMELSRLRSDDTAVYYCARYYASRYGYAMDYWGQGTLVTVSS
VL: DIVMTQSPLSLPVTPGEPASISCRSSKSLLHSNGNTYLYWYLQKPGQSPQLLIYRMSNLASGVPDRFSGSGSGTDFTLKISRVEAEDVGVYYCMQHVEYPLTFGGGTKLEIKR
notes: Full-length humanized IgG; also called H1/L1
B4: humanized antibody VH4/VL2 (antibody, V domains shown)
VH: QVQLVQSGAEVKKPGASVKMSCKASGYAFTDFHLNWVRQSHGQGLEWIGVINPYNGGTNYNQKFKDRVTLTVDTSISTAYMELSRLRSDDTAVYYCARYYASRYGYAMDYWGQGTLVTVSS
VL: DIVMTQSPLSLPVTPGEPVSISCRSSKSLLHSNGNTYLYWFLQKPGQSPQLLIYRMSNLASGVPDRFSGSGSGTDFTLKISRVEAEDVGVYYCMQHVEYPLTFGGGTKLEIK
notes: Expressed as full-length IgG in Expi293F cells and tested as supernatant
B5: humanized antibody VH4/VL1 (antibody, V domains shown)
VH: QVQLVQSGAEVKKPGASVKMSCKASGYAFTDFHLNWVRQSHGQGLEWIGVINPYNGGTNYNQKFKDRVTLTVDTSISTAYMELSRLRSDDTAVYYCARYYASRYGYAMDYWGQGTLVTVSS
VL: DIVMTQSPLSLPVTPGEPASISCRSSKSLLHSNGNTYLYWYLQKPGQSPQLLIYRMSNLASGVPDRFSGSGSGTDFTLKISRVEAEDVGVYYCMQHVEYPLTFGGGTKLEIK
notes: as for B4
B6: humanized antibody VH5/VL1 (antibody, V domains shown)
VH: QVQLVQSGAEVKKPGASVKMSCKASGYAFTDFHLNWVKQSHGQGLEWIGVINPYNGGTNYNQKFKDRVTLTVDTSISTAYMELSRLRSDDTAVYYCARYYASRYGYAMDYWGQGTLVTVSS
VL: DIVMTQSPLSLPVTPGEPASISCRSSKSLLHSNGNTYLYWYLQKPGQSPQLLIYRMSNLASGVPDRFSGSGSGTDFTLKISRVEAEDVGVYYCMQHVEYPLTFGGGTKLEIK
notes: as for B4
B7: humanized antibody VH6/VL3 (antibody, V domains shown)
VH: QVQLVQSGAEVKKPGASVKMSCKASGYAFTDFHLNWVKQSHGQGLEWIGVINPYNGGTNYNQKFKDRATLTVDTSISTAYMELSRLRSDDSAVYYCARYYASRYGYAMDYWGQGTLVTVSS
VL: DIVMTQSALSLPVTPGEPVSISCRSSKSLLHSNGNTYLYWFLQKPGQSPQLLIYRMSNLASGVPDRFSGSGSGTDFTLKISRVEAEDVGVYYCMQHVEYPLTFGGGTKLEIK
notes: as for B4
B8: humanized antibody VH2/VL1 (antibody, V domains shown)
VH: QVQLVQSGAEVKKPGASVKVSCKASGYAFTDFHLNWVRQSPGQGLEWIGVINPYNGGTNYNQKFKDRVTLTVDTSISTAYMELSRLRSDDTAVYYCARYYASRYGYAMDYWGQGTLVTVSS
VL: DIVMTQSPLSLPVTPGEPASISCRSSKSLLHSNGNTYLYWYLQKPGQSPQLLIYRMSNLASGVPDRFSGSGSGTDFTLKISRVEAEDVGVYYCMQHVEYPLTFGGGTKLEIK
notes: as for B4
B9: humanized antibody VH5/VL2 (antibody, V domains shown)
VH: QVQLVQSGAEVKKPGASVKMSCKASGYAFTDFHLNWVKQSHGQGLEWIGVINPYNGGTNYNQKFKDRVTLTVDTSISTAYMELSRLRSDDTAVYYCARYYASRYGYAMDYWGQGTLVTVSS
VL: DIVMTQSPLSLPVTPGEPVSISCRSSKSLLHSNGNTYLYWFLQKPGQSPQLLIYRMSNLASGVPDRFSGSGSGTDFTLKISRVEAEDVGVYYCMQHVEYPLTFGGGTKLEIK
notes: as for B4
B10: humanized antibody VH3/VL3 (antibody, V domains shown)
VH: QVQLVQSGAEVKKPGASVKVSCKASGYAFTDFHLNWVRQSHGQGLEWIGVINPYNGGTNYNQKFKDRVTLTVDTSISTAYMELSRLRSDDTAVYYCARYYASRYGYAMDYWGQGTLVTVSS
VL: DIVMTQSALSLPVTPGEPVSISCRSSKSLLHSNGNTYLYWFLQKPGQSPQLLIYRMSNLASGVPDRFSGSGSGTDFTLKISRVEAEDVGVYYCMQHVEYPLTFGGGTKLEIK
notes: as for B4
B11: humanized antibody VH2/VL3 (antibody, V domains shown)
VH: QVQLVQSGAEVKKPGASVKVSCKASGYAFTDFHLNWVRQSPGQGLEWIGVINPYNGGTNYNQKFKDRVTLTVDTSISTAYMELSRLRSDDTAVYYCARYYASRYGYAMDYWGQGTLVTVSS
VL: DIVMTQSALSLPVTPGEPVSISCRSSKSLLHSNGNTYLYWFLQKPGQSPQLLIYRMSNLASGVPDRFSGSGSGTDFTLKISRVEAEDVGVYYCMQHVEYPLTFGGGTKLEIK
notes: as for B4
B12: humanized antibody VH5/VL3 (antibody, V domains shown)
VH: QVQLVQSGAEVKKPGASVKMSCKASGYAFTDFHLNWVKQSHGQGLEWIGVINPYNGGTNYNQKFKDRVTLTVDTSISTAYMELSRLRSDDTAVYYCARYYASRYGYAMDYWGQGTLVTVSS
VL: DIVMTQSALSLPVTPGEPVSISCRSSKSLLHSNGNTYLYWFLQKPGQSPQLLIYRMSNLASGVPDRFSGSGSGTDFTLKISRVEAEDVGVYYCMQHVEYPLTFGGGTKLEIK
notes: as for B4
B13: humanized antibody VH6/VL2 (antibody, V domains shown)
VH: QVQLVQSGAEVKKPGASVKMSCKASGYAFTDFHLNWVKQSHGQGLEWIGVINPYNGGTNYNQKFKDRATLTVDTSISTAYMELSRLRSDDSAVYYCARYYASRYGYAMDYWGQGTLVTVSS
VL: DIVMTQSPLSLPVTPGEPVSISCRSSKSLLHSNGNTYLYWFLQKPGQSPQLLIYRMSNLASGVPDRFSGSGSGTDFTLKISRVEAEDVGVYYCMQHVEYPLTFGGGTKLEIK
notes: as for B4
B14: humanized antibody VH6/VL1 (antibody, V domains shown)
VH: QVQLVQSGAEVKKPGASVKMSCKASGYAFTDFHLNWVKQSHGQGLEWIGVINPYNGGTNYNQKFKDRATLTVDTSISTAYMELSRLRSDDSAVYYCARYYASRYGYAMDYWGQGTLVTVSS
VL: DIVMTQSPLSLPVTPGEPASISCRSSKSLLHSNGNTYLYWYLQKPGQSPQLLIYRMSNLASGVPDRFSGSGSGTDFTLKISRVEAEDVGVYYCMQHVEYPLTFGGGTKLEIK
notes: as for B4
B15: humanized antibody VH2/VL2 (antibody, V domains shown)
VH: QVQLVQSGAEVKKPGASVKVSCKASGYAFTDFHLNWVRQSPGQGLEWIGVINPYNGGTNYNQKFKDRVTLTVDTSISTAYMELSRLRSDDTAVYYCARYYASRYGYAMDYWGQGTLVTVSS
VL: DIVMTQSPLSLPVTPGEPVSISCRSSKSLLHSNGNTYLYWFLQKPGQSPQLLIYRMSNLASGVPDRFSGSGSGTDFTLKISRVEAEDVGVYYCMQHVEYPLTFGGGTKLEIK
notes: as for B4
B16: humanized antibody VH3/VL1 (antibody, V domains shown)
VH: QVQLVQSGAEVKKPGASVKVSCKASGYAFTDFHLNWVRQSHGQGLEWIGVINPYNGGTNYNQKFKDRVTLTVDTSISTAYMELSRLRSDDTAVYYCARYYASRYGYAMDYWGQGTLVTVSS
VL: DIVMTQSPLSLPVTPGEPASISCRSSKSLLHSNGNTYLYWYLQKPGQSPQLLIYRMSNLASGVPDRFSGSGSGTDFTLKISRVEAEDVGVYYCMQHVEYPLTFGGGTKLEIK
notes: as for B4
B17: humanized antibody VH4/VL3 (antibody, V domains shown)
VH: QVQLVQSGAEVKKPGASVKMSCKASGYAFTDFHLNWVRQSHGQGLEWIGVINPYNGGTNYNQKFKDRVTLTVDTSISTAYMELSRLRSDDTAVYYCARYYASRYGYAMDYWGQGTLVTVSS
VL: DIVMTQSALSLPVTPGEPVSISCRSSKSLLHSNGNTYLYWFLQKPGQSPQLLIYRMSNLASGVPDRFSGSGSGTDFTLKISRVEAEDVGVYYCMQHVEYPLTFGGGTKLEIK
notes: as for B4
B18: humanized antibody VH3/VL2 (antibody, V domains shown)
VH: QVQLVQSGAEVKKPGASVKVSCKASGYAFTDFHLNWVRQSHGQGLEWIGVINPYNGGTNYNQKFKDRVTLTVDTSISTAYMELSRLRSDDTAVYYCARYYASRYGYAMDYWGQGTLVTVSS
VL: DIVMTQSPLSLPVTPGEPVSISCRSSKSLLHSNGNTYLYWFLQKPGQSPQLLIYRMSNLASGVPDRFSGSGSGTDFTLKISRVEAEDVGVYYCMQHVEYPLTFGGGTKLEIK
notes: as for B4

The first experiment deals with T1, human CXCR4 (hCXCR4), on CXCR4-positive cell line "CXCR4 E4" (human, UniProt P61073-2 2-356).
T1 construct: FACS target: 'Positive cells lines (CXCR4 E4)'; also called chemokine receptor 4; HuCXCR4
T1 sequence (P61073 other isoform, or with tags, fused parts or gaps): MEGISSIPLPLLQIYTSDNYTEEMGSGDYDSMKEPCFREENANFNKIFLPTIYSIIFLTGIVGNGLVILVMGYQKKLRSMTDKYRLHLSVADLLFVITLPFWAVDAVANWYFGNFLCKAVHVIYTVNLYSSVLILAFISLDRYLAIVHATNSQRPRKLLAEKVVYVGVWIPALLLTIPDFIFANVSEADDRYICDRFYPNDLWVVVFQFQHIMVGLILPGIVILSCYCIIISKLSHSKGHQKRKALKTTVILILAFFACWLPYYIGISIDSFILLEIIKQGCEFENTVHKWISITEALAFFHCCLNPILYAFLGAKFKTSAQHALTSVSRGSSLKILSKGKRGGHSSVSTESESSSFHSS
Briefly: FACS on CXCR4 E4 cells; serial dilution of Expi293F supernatant; anti-human IgG Alexa Fluor 647. As for the experimental part:
The DNA sequences encoding the chimeric antibody and humanized IgG heavy and light chains were synthesized and inserted into pCDNA3.4 vector to construct the expression plasmids of full-length IgGs. 18 humanized Abs were expressed in Expi293F cell culture, and then the cells were spun down. For affinity ranking, the supernatants were assayed by FACS against cell lines for the assessment of binding activity. Positive cells lines (CXCR4 E4) were cultured following the protocol and harvested by centrifugation. About 1×10⁵cells per well were washed with 1*PBS and incubated in a serial dilution of antibodies for 30 minutes at 4° C. After washing with PBS, secondary antibody [1 μg/ml Alexa Fluor® 647 AffiniPure Goat Anti-Human IgG (H+L)] was added to the cells and incubated in PBS for 30 minutes at 4° C. After washing with PBS, cells were analyzed for binding by using FACS Calibur (BD Bioscience, San Jose, Calif.) and Flowjo software. The antibodies were ranked by EC50.
Regarding B1, the EC50 is 1.56 µg/mL and 10.4 nM.

Turning to B2, the EC50 is 2.19 µg/mL and 14.6 nM.

Consider B3, for which the EC50 was 1.72 µg/mL and 11.5 nM.

In the case of B4, the EC50 was 1.99 µg/mL and 13.2 nM.

With B5, the EC50 is 2.39 µg/mL and 16 nM.

B6: the EC50 is 0.375 µg/mL and 2.5 nM.

Consider B7, for which the EC50 is 2.86 µg/mL and 19.1 nM.

For the molecule B8, the EC50 was 5.37 µg/mL and 35.8 nM.

Turning to B9, the EC50 was 1.61 µg/mL and 10.7 nM.

As for B10, the EC50 is 2.82 µg/mL and 18.8 nM.

Regarding B11, the EC50 is 8.35 µg/mL and 55.7 nM.

As for B12, the EC50 was 1.93 µg/mL and 12.8 nM.

Consider B13, for which the EC50 was 1.94 µg/mL and 13 nM.

Turning to B14, the EC50 is 1.45 µg/mL and 9.65 nM.

For the molecule B15, the EC50 was 4.82 µg/mL and 32.1 nM.

Consider B16, for which the EC50 is 4.18 µg/mL and 27.9 nM.

Turning to B17, the EC50 was 1.97 µg/mL and 13.2 nM.

B18: the EC50 was 2.93 µg/mL and 19.5 nM.

The target in a further experiment is T1, human CXCR4 (hCXCR4), on CXCR4-positive …. Briefly: FACS binding confirmation with purified IgG on CXCR4-expressing cells.
On to B1, for which it took 1.8 µg/mL to reach a half-maximal effect (EC50).

B2 displayed an EC50 of 1.72 µg/mL.

In the case of B3, the EC50 is 1.6 µg/mL.
